Test results from patent US20220356245A1 (FORTY SEVEN, published 2022).
Positions count from the first letter of the chain named. Numbers in names are those of the source. Read-outs that look alike come from different tables or passages of the source. Values belong to the binder of their own block, whether it stands above or below them.

Tests used:
[1] = target: T1, hu-sCD47-6His; extracellular domain of human CD47 antigen with 6His-tag (human); experiment: SPR Biacore T200, antibody captured, hCD47-his analyte;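 further: antibodies captured on anti-IgG (Fc) CM5 chip, five sequential 10 min antigen injections at rising concentrations, reference flow cell and antigen-free cycle as controls, 1:1 model fit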
T1 construct: also called hCD47-his; soluble hCD47
Text: (§1) An anti-human or anti-mouse IgG (Fc) was first immobilized on the surface of Serie S Sensor Chips CM5 using the human or mouse antibody capture and amine coupling kits, following the manufacturer's instructions (GE Healthcare). […] The mouse, chimerized or humanized antibodies to be tested were then captured onto the appropriate anti-mouse or anti-human IgG surface in all flow cells except flow cell 1 used as control, at concentration and contact time adjusted so that ˜300 RU were captured on the surface. Binding kinetics were studied by passing increasing concentrations of hCD47-his in a series of five 10 minute injections through all flow cells at a rate of 30 μL/min. […] Following the final injection, buffer was passed across each flow cell for 60 minutes (mouse) or 30 minutes (human) to monitor the dissociation of bound antigen. Regeneration of the binding surface was carried out at the end of the cycle by flowing 3 M MgCl₂ for 60 s at 20 μL/min followed by 10 mM glycine-HCl, pH 1.7 for 180 s at 10 μl/min (for human) or by flowing 10 mM glycine-HCl, ph 1.7 for 360 s at 10 μl/min (for mouse). A second cycle with the same antibodies but no antigen was run as a control. Kinetics binding constants were estimated by non-linear fitting of the sensogram data to the 1:1 binding model provided by the Biacore T200 evaluation software.

[2] = target: T2, human CD47 (hCD47) expressed on cells (human, UniProt Q08722 19-323); experiment: cell-based or functional assay
[3] = target: T2, human CD47 (hCD47) expressed on cells; experiment: flow cytometry, Raji cells
[4] = target: T2, human CD47 (hCD47) expressed on cells; experiment: flow cytometry, hCD47-CHO cells, competition with His-hSIRPα
Experimental: Human CD47-transfected cells (3×10⁵ cells/well of 96-well plate) were first incubated at +4° C. for 30 minutes with serial dilutions of anti-CD47 antibodies or isotype control antibody (in mIgG2a or mIgG1 format). […] The percentage inhibition was plotted against antibody concentration and the IC50 values were calculated using a nonlinear regression analysis model of the GraphPad Prism software.

[5] = target: T2, human CD47 (hCD47) expressed on cells; experiment: flow cytometry, Raji cells, competition with His-hSIRPα
Experimental: The percent inhibition was plotted against antibody concentration and the IC50 values were calculated by using a nonlinear regression analysis model of the GraphPad Prism software.

[6] = target: T2, human CD47 (hCD47) expressed on cells; experiment: flow cytometry, Raji cells, competition with hSIRPα
[7] = target: T2, human CD47 (hCD47) expressed on cells; experiment: flow cytometry, Raji cells; remark: listed apart in the source
[8] = target: T2, human CD47 (hCD47) expressed on cells; experiment: flow cytometry on Raji cells, hIgG4 format: inhibition of hSIRPα binding to hCD47
[9] = target: T1, hu-sCD47-6His; extracellular domain of …; experiment: SPR Biacore
Text: as §1

[10] = target: T2, human CD47 (hCD47) expressed on cells; experiment: flow cytometry on Raji cells, hIgG4 format, delta MFI
[11] = target: T1, hu-sCD47-6His; extracellular domain of …; experiment: SPR Biacore; remark: listed apart in the source
[12] = target: T2, human CD47 (hCD47) expressed on cells; experiment: flow cytometry, Raji cells, competition with hSIRPα; remark: listed apart in the source
[13] = target: T2, human CD47 (hCD47) expressed on cells; experiment: flow cytometry, Raji cells; remark: listed apart in the source
[14] = target: T3, mouse CD47 (mCD47) expressed on CHO cells (mouse, UniProt Q61735 19-303); experiment: flow cytometry, CHO-mCD47 cells (not shown)
T3 construct: whole, on cells; also called CHO-mCD47
T3 sequence (looked up): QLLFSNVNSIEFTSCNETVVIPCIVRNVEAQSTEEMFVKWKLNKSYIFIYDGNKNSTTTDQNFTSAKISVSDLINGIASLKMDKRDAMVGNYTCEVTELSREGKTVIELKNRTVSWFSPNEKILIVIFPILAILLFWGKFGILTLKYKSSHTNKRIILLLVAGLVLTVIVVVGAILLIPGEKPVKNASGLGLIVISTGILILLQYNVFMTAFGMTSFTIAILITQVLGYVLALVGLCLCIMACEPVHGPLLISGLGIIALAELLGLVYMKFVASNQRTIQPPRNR

[15] = target: T1, hu-sCD47-6His; extracellular domain of …; experiment: SPR Biacore; head read as x 10^-4
Text: as §1

[16] = target: T2, human CD47 (hCD47) expressed on cells; experiment: flow cytometry on Raji cells, hIgG4 format: inhibition of hSIRPα binding to hCD47; remark: listed apart in the source
[17] = target: T2, human CD47 (hCD47) expressed on cells; experiment: flow cytometry on Raji cells, hIgG4 format, delta MFI; remark: listed apart in the source
[18] = target: T1, hu-sCD47-6His; extracellular domain of …; experiment: SPR Biacore; remark: listed apart in the source
Text: as §1

[19] = target: T2, human CD47 (hCD47) expressed on cells; experiment: flow cytometry, Raji cells, competition with hSIRPα; remark: listed apart in the source
[20] = target: T2, human CD47 (hCD47) expressed on cells; experiment: flow cytometry, Raji cells; remark: listed apart in the source
[21] = target: T3, mouse CD47 (mCD47) expressed on CHO …; experiment: flow cytometry, CHO-mCD47 cells

B1: Candidate 14 (VT008-AL6-14G1-16K1), mouse IgG (antibody, V domains shown)
VH: QVQLQQPGAELVKPGASLRVSCKASGYTFTNYWMYWVRQRPGRGLEWIGWIDPNSGGTKYNEKFKSKATLTVDKPSSTAYMQLSSLTSEDSAVYNCARGGYTMDYWGQGTSVTVSS
VL: DVVMTQTPLSLPVSLGDQASISCRASQSLVHSNGNTYLHWYLQKPGQSPKLLIYKVSNRFSGVPDRFSGSGSGTDFTLKISRVEAEDLGVYFCSQSTHVPLTFGAGTKLELK
notes: Recombinant mouse IgG2a or mIgG1 format, by assay
- Kd [1]: 3.85 nM
- koff [1]: 0.00337 s⁻¹
- kon [1]: 874000 M⁻¹ s⁻¹
- Phagocytic index, Raji cells and human macrophages, antibody at 0.125 µg/mL [2]: 78.9 Raji cells ingested per 100 macrophages
- EC50 [3]: 0.055 µg/mL
- IC50 [4]: 0.737 µg/mL

B2: Candidate 33, chimeric hIgG format (hIgG1 or hIgG4) (antibody, V domains shown)
VH: LVQLQQSGPELVKPGTSVKISCRSSGYTFTDYYINWVQQRPGQGLEWVGWIFPGSGLTYYNKKFKGKATLSVDKSSNTAYMLLSSLTSEDSAVYFCARPYYGSRWDYTMDYWGQGTSVTVSS
VL: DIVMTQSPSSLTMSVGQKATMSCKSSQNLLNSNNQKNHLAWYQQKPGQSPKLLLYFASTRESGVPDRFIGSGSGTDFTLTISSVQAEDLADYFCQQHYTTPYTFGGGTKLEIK
notes: also called Candidate 33 (hIgG format)
- IC50 [5]: 0.11 µg/mL

B3: Candidate 22, chimeric hIgG format (hIgG1 or hIgG4) (antibody, V domains shown)
VH: QVQLQQPGAELVKPGASVKLSCKASGYTFTTYWMHWVKQRPGQGLEWIGMIHPNSGTTNYNEKFKSKATLTVDKSSSSTYMQLSSLTSEDSAVYYCTRSHYYDGHFSYWGQGTLVTVSA
VL: DIVMSQSPSSLAVSAGEKVTMSCKSSQSLLNSRTRKNYLAWYQQKPGQSPKLLIYWASTRESGVPDRFTGSGSGTDFTLTISSVQAEDLAVYYCKQSYNLWTFGGGTRLEIK
notes: also called Candidate 22 (hIgG format)
- IC50 [5]: 0.233 µg/mL

B4: h20-H3-L3Y (candidate 20.28), hIgG4-S228P (antibody, V domains shown)
VH: QVQLVQSGAEVKKPGASVKVSCKASGYSFTDYYINWVRQAPGQGLEWMGRIYPGIGNTYYNKKFKGRVTVTRDTSISTAHMELSSLRSDDTAVYYCARGHYGRGMDYWGQGTAVTVSS
VL: EIVLTQSPDSLAVSLGERATINCKSSQSLLNSIDQKNYLAWYQQKAGQSPKLLIYYASTKESGVPDRFSGSGSGTDFTLTIDSLQAEDVAVYYCQQHYSTPWTFGGGTKVEIKR
notes: also called H20-VH3-VL3,Y
- IC50 [6]: 0.17 µg/mL
- EC50 [7]: 0.117 µg/mL
- IC50 (read off the curve) [8]: ~0.3 µg/mL
- Kd [9]: 2.32 nM
- koff [9]: 0.000573 s⁻¹
- kon [9]: 264000 M⁻¹ s⁻¹
- EC50 (read off the curve) [10]: ~0.1 µg/mL

B11: 2A1 (mouse antibody from Inhibrx) (antibody, V domains shown)
VH: EVQLQQSGAELVRSGASVKLSCTASGFNIKDYYLHWVKQRPEQGLEWIGWIDPDNGDTEFAPKFQGKATMTADTSSNTAYLQLSSLTSEDTAVYYCNAAYGSSSYPMDYWGQGTSVTV
VL: DIKMTQSPSSLYASLGERVTITCKASQDIHRYLSWFQQKPGKSPKILIYRANRLVDGVPSRFSGSGSGQDYSLTISSLEYEDMGIYYCLQYDEFPYTFGGGTKLEMK
- Kd [1]: 0.127 nM
- koff [1]: 4.99e-05 s⁻¹
- kon [1]: 401000 M⁻¹ s⁻¹
- Phagocytic index, Raji cells and human macrophages, antibody at 0.125 µg/mL [2]: 113 Raji cells ingested per 100 macrophages
- EC50 [3]: 0.058 µg/mL
- IC50 [4]: 0.739 µg/mL

B13: Candidate 20, chimeric hIgG format (hIgG1 or hIgG4) (antibody, V domains shown)
VH: QVQLKQSGAELVRPGASVKLSCKASGYSFTDYYINWVKQRPGQGLEWIARIYPGIGNTYYNKKFKGKATLTAEKSSSTAYMQLNSLTSEDSAVYFCARGHYGRGMDYWGQGTSVTVSS
VL: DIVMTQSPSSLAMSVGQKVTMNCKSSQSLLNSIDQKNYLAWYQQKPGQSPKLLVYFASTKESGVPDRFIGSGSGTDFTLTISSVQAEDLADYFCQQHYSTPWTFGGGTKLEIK
notes: also called Candidate 20 (hIgG format)
- IC50 [5]: 0.11 µg/mL

Now from value to binder, other results behind:

- Kd [11]: 3.05 nM
- kon [11]: 214000 M⁻¹ s⁻¹
- IC50 [12]: 0.173 µg/mL
- EC50 [13]: 0.147 µg/mL
- binding result [14]: no binding
- koff [15]: 0.000594 s⁻¹
- IC50 (read off the curve) [8]: ~0.2 µg/mL
- EC50 (read off the curve) [10]: ~0.08 µg/mL
B5: h20-VH3-VL3 (candidate 20.13) (antibody, human IgG4 S228P, kappa, V domains shown)
VH: B4 VH
VL: B4 VL with Y56F
notes: hIgG4-S228P/kappa; also called h20-H3-L3

- IC50 (read off the curve) [16]: ~0.2 µg/mL
- Kd [11]: 5.85 nM
- kon [11]: 118000 M⁻¹ s⁻¹
- IC50 [12]: 0.051 µg/mL
- EC50 [13]: 0.191 µg/mL
- binding result [14]: no binding
- koff [15]: 0.000634 s⁻¹
- EC50 (read off the curve) [17]: ~0.1 µg/mL
B6: h20-VH2-VL5 (candidate 20.10) (antibody, human IgG4 S228P, kappa, V domains shown)
VH: B4 VH with V70I, I76A, H80Y, D89E, A113L
VL: B4 VL with E1D, L4M, A46P, S49P, Y56F, D82S, S83G, Y93F, K113R
notes: hIgG4-S228P/kappa; also called h20-H2-L5

- Kd [18]: 10.9 nM
- koff [18]: 0.000306 s⁻¹
- kon [18]: 28400 M⁻¹ s⁻¹
- IC50 [19]: 0.096 µg/mL
- EC50 [20]: 0.139 µg/mL
B7: h22-VH3-VL3 (candidate 22.11) (antibody, human IgG4 S228P, kappa, V domains shown)
VH: QVQLQESGAEVKKPGASVKVSCKASGYTFTTYWMHWVRQAPGQGLEWMGMIHPNSGTTNYNEKFKSRVTMTRDTSTSTVYMELSSLRSEDTAVYYCTRSHYYDGHFSYWGQGTLVTVSS
VL: EIVLTQSPDSLAVSLGERATINCKSSQSLLNSRTRKNYLAWYQQKAGQSPKLLIYWASTRESGVPDRFSGSGSGTDFTLTIDSLQAEDVAVYYCKQSYNLWTFGGGTKVEIKR
notes: hIgG4-S228P/kappa

- Kd [18]: 12.1 nM
- koff [18]: 0.000351 s⁻¹
- kon [18]: 29100 M⁻¹ s⁻¹
- IC50 [19]: 0.098 µg/mL
- EC50 [20]: 0.124 µg/mL
B8: h22-VH4-VL3 (candidate 22.15) (antibody, human IgG4 S228P, kappa, V domains shown)
VH: B7 VH with Q5V, E6Q, A24G, M70L, T76I, V79A, S85R, R87T, E89D, L114M
VL: B7 VL
notes: hIgG4-S228P/kappa

- Kd [18]: 9.37 nM
- koff [18]: 0.000263 s⁻¹
- kon [18]: 28200 M⁻¹ s⁻¹
- IC50 [19]: 0.116 µg/mL
- EC50 [20]: 0.184 µg/mL
B9: h22-VH4-VL4 (candidate 22.16) (antibody, human IgG4 S228P, kappa, V domains shown)
VH: B7 VH with Q5V, E6Q, A24G, M70L, T76I, V79A, S85R, R87T, E89D, L114M
VL: DIVMTQSPDSLPVSLGERATINCKSSQSLLNSRTRKNYLAWYQQKPGQPPKLLIYWASTRESGVPDRFTGSGSGTDFTLTISALQAEDVAVYYCKQSYNLWTFGQGTRLEIKR
notes: hIgG4-S228P/kappa

- Kd [18]: 10 nM
- koff [18]: 0.000252 s⁻¹
- kon [18]: 25200 M⁻¹ s⁻¹
- IC50 [19]: 0.116 µg/mL
- EC50 [20]: 0.108 µg/mL
B10: h22-VH3-VL4 (candidate 22.12) (antibody, human IgG4 S228P, kappa, V domains shown)
VH: B7 VH
VL: B9 VL
notes: hIgG4-S228P/kappa

- Kd [1]: 1.94 nM
- koff [1]: 0.00037 s⁻¹
- kon [1]: 190000 M⁻¹ s⁻¹
- Phagocytic index, Raji cells and human macrophages, antibody at 0.125 µg/mL [2]: 124 Raji cells ingested per 100 macrophages
- EC50 [3]: 0.058 µg/mL
- IC50 [4]: 0.657 µg/mL
B12: Candidate 7 (VT008-AL5-10G7-10K7), mouse IgG (antibody, V domains shown)
VH: QVQLQQPGAELVMPGSSVKLSCKTSGYTFTKYWMHWVKRRPGQGLEWIGEINPSDTYTNYNQKFKGKSTLTVDKSSSTAYMQLSSLTSEDSAVYFCARVATMVARGFAYWGQGTLVTVSA
VL: DIVMTQSHKFMSTSVGDRVSITCKASQDVSGAVVWYQEKPGQSPNLLIYLATYRYTGVPDRFTGSGSGTDFTLTIRSVQAEDMAVYYCQQYYSIPWTFGGGTKLEIK
- binding result [21]: no binding (tested: 7.3 µg/mL highest concentration)
